Measurements reported in the supplement of paper PMC12764529.
± gives the half width of the 95% confidence interval.

Experiments:
[1] = folding stability dG unfold from trypsin proteolysis; higher = more stable
Summary of the method: (§1)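 Sequencing followed digestion of designed mini-proteins with trypsin and chymotrypsin, each at 11 concentrations in threefold dilutions together with a no-protease condition. The mini-proteins were under 80 residues, had no cysteine, sat in a PA-tagged cDNA display construct, and were kept only if AlphaFold2 dimer inter-PAE was above 15. From the counts, Bayesian fitting gave K50, and unfolding free energy was derived against a sequence-predicted unfolded-state K50 and a shared folded-state K50, per protease or combined.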

[2] = folding stability dG unfold from chymotrypsin proteolysis; higher = more stable
Summary of the method: as §1

[3] = folding stability dG unfold (combined trypsin and chymotrypsin); higher = more stable
Summary of the method: as §1

SAGGSAMTAEELKGMKVKITLKNGKKIEAKIKKVEVINGEIYIEIDGKKIKLKKNEKYKIEIVEKKSAGGSA [r15_355_TrROS_Hall]
folding stability dG unfold [1]: 1.84 ± 0.093 kcal/mol
folding stability dG unfold [2]: 2.22 ± 0.067 kcal/mol
folding stability dG unfold [3]: 2.06 ± 0.16 kcal/mol

SAGGSAMTIEIEAPVPAGVEVDATALFVTPDGYLYLAEVRSVGPGWARITIPVYRFDDNLDDPDFLSAGGSA [r15_909_TrMRF]
folding stability dG unfold [1]: 2.04 ± 0.045 kcal/mol
folding stability dG unfold [2]: 2.19 ± 0.042 kcal/mol
folding stability dG unfold [3]: 2.17 ± 0.051 kcal/mol

SAGGSAMTITEDGTLTLEIKVPEDAPEATVKVTVLTDGKTLGEADPATGKVTLKVPPDVEVKVEVASAGGSA [r15_180_TrMRF]
folding stability dG unfold [1]: 1.09 ± 0.074 kcal/mol
folding stability dG unfold [2]: 1.87 ± 0.045 kcal/mol
folding stability dG unfold [3]: 1.69 ± 0.13 kcal/mol

SAGGSAMTITVTEETDPNTDRKTTTVSLSPGVSEEVLEELKAEAEKKGAKLTVYPEEGVVTVVTPESAGGSA [r15_542_JUSTAS]
folding stability dG unfold [1]: 0.0631 ± 0.052 kcal/mol
folding stability dG unfold [2]: 0.311 ± 0.065 kcal/mol
folding stability dG unfold [3]: 0.224 ± 0.17 kcal/mol

SAGGSAMTITVTLTFKSEEEALAAIRELAEALGLEIESVEIRYDPETEEVTVTATIRLPPPPPELLSAGGSA [r15_254_TrROS_Hall]
folding stability dG unfold [1]: 2.73 ± 0.16 kcal/mol
folding stability dG unfold [2]: 2.62 ± 0.033 kcal/mol
folding stability dG unfold [3]: 2.75 ± 0.11 kcal/mol

SAGGSAMTKEEAKEYAEKRVKEEHPGWTVLGVEVTELPGKEVLTKVTVKPPENPDKTLEFEFKFPLSAGGSA [r15_627_JUSTAS]
folding stability dG unfold [1]: 2.34 ± 0.1 kcal/mol
folding stability dG unfold [2]: 2.61 ± 0.035 kcal/mol
folding stability dG unfold [3]: 2.54 ± 0.072 kcal/mol

SAGGSAMTPEEARARAEAIAEELAAEARAAGRAAEVTVEVTELPPELYRFTITFPGRTREVLLPVESAGGSA [r15_432_JUSTAS]
folding stability dG unfold [1]: -0.18 ± 0.18 kcal/mol
folding stability dG unfold [2]: -0.262 ± 0.15 kcal/mol
folding stability dG unfold [3]: -0.16 ± 0.13 kcal/mol

SAGGSAMTPEELANVTVEVVTTTEPASPDLTLPDGTRLPPSTTVTTTTEVVVLPGGELLGTRVTVASAGGSA [r15_12_JUSTAS]
folding stability dG unfold [1]: -0.375 ± 0.051 kcal/mol
folding stability dG unfold [2]: 1.03 ± 0.023 kcal/mol
folding stability dG unfold [3]: 0.644 ± 0.043 kcal/mol

SAGGSAMTTTTSTDPATNKTYVTVTFPKDEALVEEVKEELKKKGIKEIKVYEFPENDLVRVEITVGSAGGSA [r2_358_JUSTAS]
folding stability dG unfold [1]: 0.452 ± 0.098 kcal/mol
folding stability dG unfold [2]: 0.767 ± 0.13 kcal/mol
folding stability dG unfold [3]: 0.685 ± 0.14 kcal/mol

SAGGSAMTVKVRLRVRRRVFNEDGELVAEEELELEVEVEVRPPPPPPPPPLTAEELAEKLGLEPEDSAGGSA [r15_572_TrROS_Hall]
folding stability dG unfold [1]: 2.52 ± 0.093 kcal/mol
folding stability dG unfold [2]: 3.37 ± 0.074 kcal/mol
folding stability dG unfold [3]: 3.19 ± 0.39 kcal/mol

SAGGSAMTVTTLPDGSTVIHLPSGTTITITTAPDGTKPITITPPDGVPTTFPASVSLEDAIKAALSSAGGSA [r15_371_JUSTAS]
folding stability dG unfold [1]: 3.58 ± 0.044 kcal/mol
folding stability dG unfold [2]: 2.67 ± 0.034 kcal/mol
folding stability dG unfold [3]: 3.1 ± 0.032 kcal/mol

SAGGSAMVETKTFEFEFEFEFENPDGEPATVTVPVTVEVPVLVPVAAPGPPGANGPEKELEELEKESAGGSA [r15_728_TrMRF]
folding stability dG unfold [1]: 1.05 ± 0.096 kcal/mol
folding stability dG unfold [2]: 0.641 ± 0.065 kcal/mol
folding stability dG unfold [3]: 0.782 ± 0.13 kcal/mol

SAGGSAMVMITIKIKFPGNEVEINMPAEDLDELLSHPELGDNFEITEIEVMPIPPPPVDPEQAEEKSAGGSA [r15_460_TrROS]
folding stability dG unfold [1]: 1.21 ± 0.15 kcal/mol
folding stability dG unfold [2]: 0.885 ± 0.11 kcal/mol
folding stability dG unfold [3]: 1.03 ± 0.24 kcal/mol

SAGGSAMVTPEERVEAALAYIRGKYGFPLSATPAQLREAGLPVRVELTVTDADGRPLATVTLEIPGSAGGSA [r15_391_TrMRF]
folding stability dG unfold [1]: 1.39 ± 0.037 kcal/mol
folding stability dG unfold [2]: 1.78 ± 0.089 kcal/mol
folding stability dG unfold [3]: 1.65 ± 0.07 kcal/mol

SAGGSAMVTVTRYPDGTYVVEATGRGDSRTFTLDLPLEEIKEVLEKEGIKIDKIEVKPAPVDPAKVSAGGSA [r15_576_JUSTAS]
folding stability dG unfold [1]: 1.268 ± 0.012 kcal/mol
folding stability dG unfold [2]: 1.5 ± 0.034 kcal/mol
folding stability dG unfold [3]: 1.4 ± 0.05 kcal/mol

SAGGSAMVVTVPASSLTPESIRALARENPGPVELVFPEEGRRVTVEVRGDGVVRVEEHPLDPAELASAGGSA [r15_751_JUSTAS]
folding stability dG unfold [1]: -1.07 ± 0.19 kcal/mol
folding stability dG unfold [2]: -0.536 ± 0.1 kcal/mol
folding stability dG unfold [3]: -0.621 ± 0.083 kcal/mol

SAGGSAMYEVTEEKDPNSDYTTVTITFPNGATVTITYNPKTNTITADVDPAVDPEVAAAAAKAVLSSAGGSA [r15_511_JUSTAS]
folding stability dG unfold [1]: 1.92 ± 0.067 kcal/mol
folding stability dG unfold [2]: 2.39 ± 0.028 kcal/mol
folding stability dG unfold [3]: 2.23 ± 0.071 kcal/mol

SAGGSANNPKPRIIEIPIQFDWPPGDPQQMRNLAETIADEFSDPGYRVEIDEFTPDYFMFNIKIEWSAGGSA [r15_563_TrROS]
folding stability dG unfold [1]: 2.13 ± 0.1 kcal/mol
folding stability dG unfold [2]: 2.937 ± 0.025 kcal/mol
folding stability dG unfold [3]: 2.72 ± 0.12 kcal/mol

SAGGSAPDNKPKPVVREVEFWIMIPFKSAEQAKEIVEELMKFFGGLKVEILEVHPDGYAMIKITIYSAGGSA [r15_387_TrROS]
folding stability dG unfold [1]: 3.68 ± 0.13 kcal/mol
folding stability dG unfold [2]: 5.38 ± 0.072 kcal/mol
folding stability dG unfold [3]: 5.15 ± 0.11 kcal/mol

SAGGSAPEPVEFTLGHPDGVPYRVTLTRLPDTDLYLVTVEFPGPEVTFTGVAPLEVLENIPGLTPVSAGGSA [r15_622_TrMRF]
folding stability dG unfold [1]: 1.53 ± 0.035 kcal/mol
folding stability dG unfold [2]: 1.88 ± 0.09 kcal/mol
folding stability dG unfold [3]: 1.72 ± 0.068 kcal/mol

SAGGSAPESVKPPVVVVTLVLEFPDGRKLTIPVAHEELAEALEVALALPLALEHDTKLVKVEKANVSAGGSA [r15_140_TrMRF]
folding stability dG unfold [1]: 0.265 ± 0.12 kcal/mol
folding stability dG unfold [2]: 0.736 ± 0.16 kcal/mol
folding stability dG unfold [3]: 0.558 ± 0.15 kcal/mol

SAGGSAPEVRLSASREGNTVTVLALKPVGDRTYLVVTTYEVRELGEGFLVLSSSEVIPLPDGEGFFSAGGSA [r15_725_TrMRF]
folding stability dG unfold [1]: 1.626 ± 0.015 kcal/mol
folding stability dG unfold [2]: 2.66 ± 0.044 kcal/mol
folding stability dG unfold [3]: 2.36 ± 0.032 kcal/mol

SAGGSAPFVPPGFVKSVEEFEVTFPDGSKYRVTLIEVDGGPLVLVEKPGVGEPKTLPFEKLLELLASAGGSA [r15_329_TrMRF]
folding stability dG unfold [1]: 1.88 ± 0.11 kcal/mol
folding stability dG unfold [2]: 1.36 ± 0.075 kcal/mol
folding stability dG unfold [3]: 1.73 ± 0.13 kcal/mol

SAGGSAPKPDWIVRIEITVKFPGKTKKIDIVIDSPEALNQIINELKDEGFKDVEPKIEWVPLEEMKSAGGSA [r15_1015_TrROS]
folding stability dG unfold [1]: 0.296 ± 0.089 kcal/mol
folding stability dG unfold [2]: 1.21 ± 0.17 kcal/mol
folding stability dG unfold [3]: 0.915 ± 0.26 kcal/mol

SAGGSAPKTVTFTTPKGYPITVTPGDRTVTLTHPDRPLATFDVPPDVPTFTITLPDGDTATITVDDSAGGSA [r2_385_TrMRF]
folding stability dG unfold [1]: -0.581 ± 0.088 kcal/mol
folding stability dG unfold [2]: -0.408 ± 0.19 kcal/mol
folding stability dG unfold [3]: -0.446 ± 0.11 kcal/mol

SAGGSAPPNIEREEYEFYLRNPDGKELGPAKIEVIRDPGDPDRPILTIEWPNGEPMLFDADDIEPLSAGGSA [r15_954_TrROS]
folding stability dG unfold [1]: 0.18 ± 0.052 kcal/mol
folding stability dG unfold [2]: 0.384 ± 0.17 kcal/mol
folding stability dG unfold [3]: 0.317 ± 0.19 kcal/mol

SAGGSAPPPIKIKFKYPNGRPMELEFNPENGNYEIKQPDGEKEEVPMENIKEIRIPPGIKDVEIVPSAGGSA [r15_1043_TrROS]
folding stability dG unfold [1]: -0.579 ± 0.27 kcal/mol
folding stability dG unfold [2]: -0.0709 ± 0.41 kcal/mol
folding stability dG unfold [3]: < -1 kcal/mol

SAGGSAPPPKWIMFKIEATMPPNDLDNVVEELLKILFGFKIKNIEVEWEQVKDGYYKVPVWVMIRFSAGGSA [r15_138_TrROS]
folding stability dG unfold [1]: 3.01 ± 0.41 kcal/mol
folding stability dG unfold [2]: 4.05 ± 0.093 kcal/mol
folding stability dG unfold [3]: 4.12 ± 0.4 kcal/mol

SAGGSAPPTYTFMIPIKEIYVPDPDNGKPKPIPVEEFADFLMPKFGIDVEILDVHPDWIQITVTPDSAGGSA [r15_55_TrROS]
folding stability dG unfold [1]: 1.81 ± 0.11 kcal/mol
folding stability dG unfold [2]: 1.49 ± 0.091 kcal/mol
folding stability dG unfold [3]: 1.73 ± 0.19 kcal/mol

SAGGSAPPVKVDVEELDDDLVKVTVTFPGGPFTLKLYKDGKLLKEETVPEDETATFVLPKDALIVGSAGGSA [r15_581_TrMRF]
folding stability dG unfold [1]: 0.847 ± 0.051 kcal/mol
folding stability dG unfold [2]: 1.59 ± 0.064 kcal/mol
folding stability dG unfold [3]: 1.36 ± 0.059 kcal/mol

SAGGSAPVTEGPNSITVTRDLDPSESEEEVRALAEEILAALPADVSVSVEFDPETGTATITITFPGSAGGSA [r15_210_JUSTAS]
folding stability dG unfold [1]: 2.31 ± 0.054 kcal/mol
folding stability dG unfold [2]: 1.95 ± 0.051 kcal/mol
folding stability dG unfold [3]: 2.15 ± 0.055 kcal/mol

SAGGSAPVTLETEFFGENGLLVRTEAVVDPATGEVTVRTETFPVITGPADNPDVVKKLLEEAGIDASAGGSA [r2_304_TrMRF]
folding stability dG unfold [1]: 0.645 ± 0.059 kcal/mol
folding stability dG unfold [2]: 0.817 ± 0.094 kcal/mol
folding stability dG unfold [3]: 0.887 ± 0.23 kcal/mol

SAGGSARALLEELEVLSEEDRGDFTVVTVKGPAAEYPAEEVRAALEALGIAVEYDPATGEVTVYVASAGGSA [r15_599_JUSTAS]
folding stability dG unfold [1]: -0.0454 ± 0.023 kcal/mol
folding stability dG unfold [2]: 0.964 ± 0.084 kcal/mol
folding stability dG unfold [3]: 0.69 ± 0.071 kcal/mol

SAGGSARWFLIRIEFVFGGEPRTFSVLIDVDPGEIEIEIPPELQKKGFQIKDIEIWPLPPEDLKKLSAGGSA [r15_853_TrROS]
folding stability dG unfold [1]: 2.22 ± 0.04 kcal/mol
folding stability dG unfold [2]: 3.18 ± 0.11 kcal/mol
folding stability dG unfold [3]: 2.84 ± 0.18 kcal/mol

SAGGSASAEELAAELARRLAEELGLEVTKVEITEVTPDRVVVRVTVTVTLPNGEKVTRELTLVLEPSAGGSA [r15_276_TrROS_Hall]
folding stability dG unfold [1]: 2.16 ± 0.054 kcal/mol
folding stability dG unfold [2]: 3.24 ± 0.12 kcal/mol
folding stability dG unfold [3]: 3.05 ± 0.11 kcal/mol

SAGGSASAPVPTSVSVSVSSDPASGLTTIPTTVTYNGKTFPMSVTTTPSGTVVTKVGGSTFTVPAASAGGSA [r15_507_JUSTAS]
folding stability dG unfold [1]: 0.0583 ± 0.075 kcal/mol
folding stability dG unfold [2]: -0.286 ± 0.11 kcal/mol
folding stability dG unfold [3]: -0.0606 ± 0.077 kcal/mol
